This is an account of results in US20110044911A1.

The experiment addresses receptors for CRF on murine pituitary tumor cell line AtT-20 (murine). The experiment in a line: cell-based or functional assay.

In the case of “CRF-conjugated dextran-coated and maleimide surface-modified magnetonanoparticles (peptide)”, the Production of c-AMP (nM) was 2 fold and the fold decrease in Production of c-AMP (nM) was determined as 10 fold.
